Test results published in patent US20240318156A1.

T1: Recombinant human GM2 activator protein (GM2AP) containing an N-terminal 6×-histidine tag, P17900
T1 chain: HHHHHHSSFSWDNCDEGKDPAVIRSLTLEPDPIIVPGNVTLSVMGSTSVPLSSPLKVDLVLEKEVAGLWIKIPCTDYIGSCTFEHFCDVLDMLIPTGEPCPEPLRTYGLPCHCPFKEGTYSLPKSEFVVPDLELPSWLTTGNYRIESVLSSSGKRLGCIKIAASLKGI


Key:
[1] = target: cation independent mannose 6-phosphate receptor (CI-MPR) (human) (UniProt P11717); assay: cell-based or functional assay
[2] = target: T1, Recombinant human GM2 activator protein …

Sequence of UniProt P11717 (P11717 41-2491): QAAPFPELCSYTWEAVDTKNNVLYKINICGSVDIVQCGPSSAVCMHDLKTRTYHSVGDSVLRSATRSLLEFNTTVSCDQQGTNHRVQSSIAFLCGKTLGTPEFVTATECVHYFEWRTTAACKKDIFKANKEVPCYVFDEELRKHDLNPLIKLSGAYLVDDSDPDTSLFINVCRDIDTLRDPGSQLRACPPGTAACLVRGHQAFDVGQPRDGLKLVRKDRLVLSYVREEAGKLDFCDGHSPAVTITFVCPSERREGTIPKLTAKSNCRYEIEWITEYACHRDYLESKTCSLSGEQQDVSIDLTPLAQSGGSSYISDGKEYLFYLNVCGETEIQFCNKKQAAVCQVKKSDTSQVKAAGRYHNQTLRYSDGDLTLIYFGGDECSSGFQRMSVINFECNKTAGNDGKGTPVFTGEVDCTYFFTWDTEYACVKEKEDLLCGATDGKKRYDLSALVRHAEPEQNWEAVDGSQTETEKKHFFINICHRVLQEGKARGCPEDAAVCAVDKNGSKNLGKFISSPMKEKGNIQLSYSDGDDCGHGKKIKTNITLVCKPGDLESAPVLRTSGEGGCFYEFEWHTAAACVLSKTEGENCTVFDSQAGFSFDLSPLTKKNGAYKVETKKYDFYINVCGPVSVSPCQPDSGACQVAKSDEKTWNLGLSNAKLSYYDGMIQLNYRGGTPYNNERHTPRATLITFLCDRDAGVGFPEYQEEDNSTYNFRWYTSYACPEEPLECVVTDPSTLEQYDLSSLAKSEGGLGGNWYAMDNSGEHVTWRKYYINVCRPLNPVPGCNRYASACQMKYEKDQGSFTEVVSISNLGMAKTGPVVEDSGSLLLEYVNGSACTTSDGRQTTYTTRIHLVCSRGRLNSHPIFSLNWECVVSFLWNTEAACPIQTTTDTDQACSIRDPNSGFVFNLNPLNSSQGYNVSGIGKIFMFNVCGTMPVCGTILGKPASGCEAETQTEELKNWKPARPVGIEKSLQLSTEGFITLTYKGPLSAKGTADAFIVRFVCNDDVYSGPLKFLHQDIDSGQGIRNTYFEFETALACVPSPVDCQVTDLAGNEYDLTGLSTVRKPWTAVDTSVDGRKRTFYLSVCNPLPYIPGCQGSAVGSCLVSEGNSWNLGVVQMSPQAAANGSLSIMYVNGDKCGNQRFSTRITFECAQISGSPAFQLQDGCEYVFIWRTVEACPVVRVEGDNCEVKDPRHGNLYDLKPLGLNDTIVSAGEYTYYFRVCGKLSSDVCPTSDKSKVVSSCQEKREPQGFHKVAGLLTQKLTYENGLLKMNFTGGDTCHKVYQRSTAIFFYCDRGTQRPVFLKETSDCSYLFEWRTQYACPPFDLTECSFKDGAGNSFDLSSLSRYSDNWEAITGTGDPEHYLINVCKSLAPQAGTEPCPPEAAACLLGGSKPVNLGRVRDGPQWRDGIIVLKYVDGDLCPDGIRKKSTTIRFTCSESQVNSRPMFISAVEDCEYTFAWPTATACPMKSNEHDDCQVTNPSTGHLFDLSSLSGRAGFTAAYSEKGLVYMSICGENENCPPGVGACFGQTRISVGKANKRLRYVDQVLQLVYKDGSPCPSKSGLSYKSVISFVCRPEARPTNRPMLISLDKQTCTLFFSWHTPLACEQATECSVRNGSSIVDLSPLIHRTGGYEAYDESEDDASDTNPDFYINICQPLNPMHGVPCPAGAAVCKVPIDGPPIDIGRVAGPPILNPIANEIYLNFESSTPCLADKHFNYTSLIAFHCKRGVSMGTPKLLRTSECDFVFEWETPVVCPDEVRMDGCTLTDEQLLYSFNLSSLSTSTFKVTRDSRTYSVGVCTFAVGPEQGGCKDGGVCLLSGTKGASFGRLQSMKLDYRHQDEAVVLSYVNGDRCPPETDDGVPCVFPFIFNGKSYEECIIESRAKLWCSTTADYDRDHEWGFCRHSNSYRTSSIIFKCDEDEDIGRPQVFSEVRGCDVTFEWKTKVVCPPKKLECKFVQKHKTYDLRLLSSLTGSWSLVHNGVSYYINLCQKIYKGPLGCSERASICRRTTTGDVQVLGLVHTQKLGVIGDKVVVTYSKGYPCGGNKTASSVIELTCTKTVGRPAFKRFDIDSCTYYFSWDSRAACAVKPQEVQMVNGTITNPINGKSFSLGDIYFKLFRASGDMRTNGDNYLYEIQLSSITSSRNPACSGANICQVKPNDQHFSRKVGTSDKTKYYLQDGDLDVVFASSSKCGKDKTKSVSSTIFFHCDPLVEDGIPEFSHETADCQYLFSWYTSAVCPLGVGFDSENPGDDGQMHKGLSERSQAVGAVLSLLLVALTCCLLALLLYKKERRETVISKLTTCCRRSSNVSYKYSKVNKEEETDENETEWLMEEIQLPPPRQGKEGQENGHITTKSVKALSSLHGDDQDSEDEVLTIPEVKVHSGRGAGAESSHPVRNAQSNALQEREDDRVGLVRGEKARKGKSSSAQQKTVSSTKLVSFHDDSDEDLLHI

Binder | K uptake (nM) MUG activity [1] [nM] | Km (Kinetic data of FIG. 2, GM2AP-dependent GM2 degradation) [2] [µM] | Km GM2AP [2] [µM] | Km [GM2AP], µM (GM2AP-dependent GM2 hydrolysis, natural substrate assay) [2] [µM] | GM2AP-dependent kinetics of GM2 hydrolysis [2]
HexA (wild-type; α/β heterodimer) (protein) chain 1: TLEKNVLVVSVVTPGCNQLPTLESVENYTLTINDDQCLLLSETVWGALRGLETFSQLVWKSAEGTFFINKTEIEDFPRFPHRGLLLDTSRHYLPLSSILDTLDVMAYNKLNVFHWHLVDDPSFPYESFTFPELMRKGSYNPVTHIYTAQDVKEVIEYARLRGIRVLAEFDTPGHTLSWGPGIPGLLTPCYSGSEPSGTFGPVNPSLNNTYEFMSTFFLEVSSVFPDFYLHLGGDEVDFTCWKSNPEIQDFMRKKGFGEDFKQLESFYIQTLLDIVSSYGKGYVVWQEVFDNKVKIQPDTIIQVWREDIPVNYMKELELVTKAGFRALLSAPWYLNRISYGPDWKDFYIVEPLAFEGTPEQKALVIGGEACMWGEYVDNTNLVPRLWPRAGAVAERLWSNKLTSDLTFAYERLSHFRCELLRRGVQAQPLNVGFCEQEFEQT chain 2: ARAPSVSAKPGPALWPLPLSVKMTPNLLHLAPENFYISHSPNSTAGPSCTLLEEAFRYHGYIFGFYKWHHEPAEFQAKTQVQQLLVSITLQSECDAFPNISSDESYTLLVKEPVAVLKANRVWGALRGLETFSQLVYQDSYGTFTINESTIIDSPRFSHRGILIDTSRHYLPVKIILKTLDAMAFNKFNVLHWHIVDDQSFPYQSITFPELSNKGSYSLSHVYTPNDVRMVIEYARLRGIRVLPEFDTPGHTLSWGKGQKDLLTPCYSRQNKLDSFGPINPTLNTTYSFLTTFFKEISEVFPDQFIHLGGDEVEFKCWESNPKIQDFMRQKGFGTDFKKLESFYIQKVLDIIATINKGSIVWQEVFDDKAKLAPGTIVEVWKDSAYPEELSRVTASGFPVILSAPWYLDLISYGQDWRKYYKVEPLDFGGTQKQKQLFIGGEACLWGEYVDATNLTPRLWPRASAVGERLWSSKDVRDMDDAYDRLTRHRCRMVERGIAAQPLYAGYCNHENM | 3.3 | 14.5 | 14.5 | 14.5 | –
Mod2B (Modified β/β homodimer) (protein) TQVQQLLVSITLQSECDAFPNISSDESYTLLVKEPVAVLKANRVWGALRGLETFSQLVYQDSYGTFTINESTIIDSPRFSHRGILIDTSRHYLPVKIILKTLDAMAFNKFNVLHWHIVDDQSFPYQSITFPELSNKGSYSLSHVYTPNDVRMVIEYARLRGIRVLPEFDTPGHTLSWGKGQKDLLTPCYSGSEPSGTFGPINPTLNTTYSFLTTFFKEISEVFPDQFIHLGGDEVEFKCWESNPKIQDFMRQKGFGTDFKKLESFYIQKVLDIIATINKGSIVWQEVFDDKAKLAPGTIVEVWKDSAYPEELSRVTASGFPVILSAPWYLNRISYGQDWRKYYKVEPLDFGGTQKQKQLFIGGEACLWGEYVDATNLTPRLWPRASAVGERLWSSKDVRDMDDAYDRLTRHRCRMVERGIAAQPLYAGYCNHENM | – | 20.4 | – | 20.4 | GM2AP binding kinetics to the Hex homodimers was comparable to the wild type heterodimer

The next lines start with results.

K uptake (nM) MUG activity [1] [nM] | Binder | Km (Kinetic data of FIG. 2, GM2AP-dependent GM2 degradation) [2] [µM] | Km GM2AP [2] [µM] | Km [GM2AP], µM (GM2AP-dependent GM2 hydrolysis, natural substrate assay) [2] [µM] | GM2AP-dependent kinetics of GM2 hydrolysis [2]
5.8 | HexD3 (Modified α/α homodimer) (protein) ARAPSVSAKPGPALWPLPLSVKMTPNLLHLAPENFYISHSPNSTAGPSCTLLEEAFRRYHGYIFGFYKWHHEPAEFQAKTQVQQLLVSITLQSECDAFPNISSDESYTLLVKEPVAVLKANRVWGALRGLETFSQLVYQDSYGTFTINESTIIDSPRFPHRGLLLDTSRHYLPLKSILDTLDVMAYNKLNVFHWHLVDDQSFPYESFTFPELMRKGSYSLSHIYTAQDVKEVIEYARLRGIRVLAEFDTPGHTLSWGPGIPGLLTPCYSGSEPSGTFGPVNPSLNNTYEFMSTFFLEVSSVFPDFYLHLGGDEVDFTCWKSNPEIQDFMRKKGFGEDFKQLESFYIQTLLDIVSSYGKGYVVWQEVFDNKVKIQPDTIIQVWREDIPVNYMKELELVTKAGFRALLSAPWYLNRISYGQDWRKFYKVEPLAFEGTPEQKALVIGGEACMWGEYVDATNLVPRLWPRAGAVAERLWSNKLTRDMDDAYDRLSHFRCELVRRGVAAQPLYAGYCNQEFEQT | 13.7 | 13.7 | 13.7 | –
130 | HexM (Modified α/α homodimer) (protein) TLEKNVLVVSVVTPGCNQLPTLESVENYTLTINDDQCLLLSETVWGALRGLETFSQLVWKSAEGTFFINKTEIEDFPRFPHRGLLLDTSRHYLPLKSILDTLDVMAYNKLNVFHWHLVDDQSFPYESFTFPELMRKGSYSLSHIYTAQDVKEVIEYARLRGIRVLAEFDTPGHTLSWGPGIPGLLTPCYSGSEPSGTFGPVNPSLNNTYEFMSTFFLEVSSVFPDFYLHLGGDEVDFTCWKSNPEIQDFMRKKGFGEDFKQLESFYIQTLLDIVSSYGKGYVVWQEVFDNKVKIQPDTIIQVWREDIPVNYMKELELVTKAGFRALLSAPWYLNRISYGQDWRKFYKVEPLAFEGTPEQKALVIGGEACMWGEYVDATNLVPRLWPRAGAVAERLWSNKLTRDMDDAYDRLSHFRCELVRRGVAAQPLYAGYCNQEFEQT | 19.6 | 19.6 | 19.6 | GM2AP binding kinetics to the Hex homodimers was comparable to the wild type heterodimer
